Measurements: publication doi:10.1101/435982 (bioRxiv, 2018)

Columns and labels:
[1] = molecular target: His-Halo-XcpS62-396 (not stated | P. aeruginosa) (UniProt Q00513); assay: negative-stain electron microscopy structure
SEC-MALS = molecular target: the molecule itself; assay: SEC-MALS

## His-Halo-XcpS62-396 (from UniProt Q00513 62-396) (domain or fragment)
[1]
  stoichiometry N: 2

B1: Strep-mCherry-XcpS56-396 (domain or fragment, P. aeruginosa, UniProt Q00513 56-396, looked up)
chain: RLTFARGLSARDLALVTRQLATLVQAALPIEEALRAAAAQSTSQRIQSMLLAVRAKVLEGHSLAGSLREFPTAFPELYRATVAAGEHAGHLGPVLEQLADYTEQRQQSRQKIQLALLYPVILMVASLAIVGFLLGYVVPDVVRVFIDSGQTLPLLTRVLIGVSDWVKAWGALAFVAAIGGVIGFRYALRKDAFRERWHGFLLRVPLVGRLVRSTDTARFASTLAILTRSGVPLVEALAIAAEVIANRIIRNEVVKAAQKVREGASLTRSLEATGQFPPMMLHMIASGERSGELDQMLARTARNQENDLAAQIGLMVGLFEPFMLIFMGAVVLVIVLAILLP
SEC-MALS
  stoichiometry N: 2
